To fix the notation:
B1: Apoptosis-associated speck-like protein containing a CARD, residues 114 to 194; numbered along this chain, Q9ULZ3 (parent)
chain: FIDQHRAALIARVTNVEWLLDALYGKVLTDEQYQAVRAEPTNPSKMRKLFSFTPAWNWTCKDLLLQALRESQSYLVEDLER

± gives the uncertainty stated by the source.

The data set covers variants of B1. Put plainly: abundance fitness (aPCA) (normalised: wild type 0, dead -1); higher = more abundant; growth selection in yeast, the domain comes from the species named. To be noted: Homo sapiens.
In the case of FIDQHRTALIARVTNVEWLLDALYGKVLTDEQYQAVRAEPTNPSKMRKLFSFTPAWNWTCKDLLLQALRESQSYLVEDLER [A7T], the abundance fitness was -0.277 ± 0.11.

Regarding FIDQHRVALIARVTNVEWLLDALYGKVLTDEQYQAVRAEPTNPSKMRKLFSFTPAWNWTCKDLLLQALRESQSYLVEDLER [A7V], the abundance fitness was -0.249 ± 0.058.

Take FIDQHRCALIARVTNVEWLLDALYGKVLTDEQYQAVRAEPTNPSKMRKLFSFTPAWNWTCKDLLLQALRESQSYLVEDLER [A7C]: the abundance fitness is -0.2 ± 0.05.

Consider FIDQHRHALIARVTNVEWLLDALYGKVLTDEQYQAVRAEPTNPSKMRKLFSFTPAWNWTCKDLLLQALRESQSYLVEDLER [A7H], for which the abundance fitness is -0.149 ± 0.11.

In the case of FIDQHRKALIARVTNVEWLLDALYGKVLTDEQYQAVRAEPTNPSKMRKLFSFTPAWNWTCKDLLLQALRESQSYLVEDLER [A7K], the abundance fitness was -0.035 ± 0.1.

Take FIDQHRPALIARVTNVEWLLDALYGKVLTDEQYQAVRAEPTNPSKMRKLFSFTPAWNWTCKDLLLQALRESQSYLVEDLER [A7P]: the abundance fitness is -0.437 ± 0.09.

For the variant FIDQHRYALIARVTNVEWLLDALYGKVLTDEQYQAVRAEPTNPSKMRKLFSFTPAWNWTCKDLLLQALRESQSYLVEDLER [A7Y], the abundance fitness is -0.54 ± 0.36.

As to FIDQHRQALIARVTNVEWLLDALYGKVLTDEQYQAVRAEPTNPSKMRKLFSFTPAWNWTCKDLLLQALRESQSYLVEDLER [A7Q], the abundance fitness was 0.045 ± 0.084.

With FIDQHRNALIARVTNVEWLLDALYGKVLTDEQYQAVRAEPTNPSKMRKLFSFTPAWNWTCKDLLLQALRESQSYLVEDLER [A7N], the abundance fitness turned out to be 0.002 ± 0.13.

Consider FIDQHRGALIARVTNVEWLLDALYGKVLTDEQYQAVRAEPTNPSKMRKLFSFTPAWNWTCKDLLLQALRESQSYLVEDLER [A7G], for which the abundance fitness is -0.152 ± 0.044.

As to FIDQHRLALIARVTNVEWLLDALYGKVLTDEQYQAVRAEPTNPSKMRKLFSFTPAWNWTCKDLLLQALRESQSYLVEDLER [A7L], the abundance fitness was -0.461 ± 0.068.

With FIDQHREALIARVTNVEWLLDALYGKVLTDEQYQAVRAEPTNPSKMRKLFSFTPAWNWTCKDLLLQALRESQSYLVEDLER [A7E], the abundance fitness amounted to 0.295 ± 0.069.

As for FIDQHRRALIARVTNVEWLLDALYGKVLTDEQYQAVRAEPTNPSKMRKLFSFTPAWNWTCKDLLLQALRESQSYLVEDLER [A7R], the abundance fitness is -0.119 ± 0.045.

FIDQHRDALIARVTNVEWLLDALYGKVLTDEQYQAVRAEPTNPSKMRKLFSFTPAWNWTCKDLLLQALRESQSYLVEDLER [A7D]: the abundance fitness turned out to be 0.065 ± 0.1.

Regarding FIDQHRSALIARVTNVEWLLDALYGKVLTDEQYQAVRAEPTNPSKMRKLFSFTPAWNWTCKDLLLQALRESQSYLVEDLER [A7S], the abundance fitness is -0.014 ± 0.054.

On to FIDQHRFALIARVTNVEWLLDALYGKVLTDEQYQAVRAEPTNPSKMRKLFSFTPAWNWTCKDLLLQALRESQSYLVEDLER [A7F], for which the abundance fitness was -0.652 ± 0.16.

With FIDQHRIALIARVTNVEWLLDALYGKVLTDEQYQAVRAEPTNPSKMRKLFSFTPAWNWTCKDLLLQALRESQSYLVEDLER [A7I], the abundance fitness is -0.638 ± 0.3.

On to FIDQHRMALIARVTNVEWLLDALYGKVLTDEQYQAVRAEPTNPSKMRKLFSFTPAWNWTCKDLLLQALRESQSYLVEDLER [A7M], for which the abundance fitness was -0.251 ± 0.078.

Consider FIDQHRAFLIARVTNVEWLLDALYGKVLTDEQYQAVRAEPTNPSKMRKLFSFTPAWNWTCKDLLLQALRESQSYLVEDLER [A8F], for which the abundance fitness was -0.673 ± 0.18.

Regarding FIDQHRAGLIARVTNVEWLLDALYGKVLTDEQYQAVRAEPTNPSKMRKLFSFTPAWNWTCKDLLLQALRESQSYLVEDLER [A8G], the abundance fitness is -0.577 ± 0.059.

FIDQHRAKLIARVTNVEWLLDALYGKVLTDEQYQAVRAEPTNPSKMRKLFSFTPAWNWTCKDLLLQALRESQSYLVEDLER [A8K]: the abundance fitness is -0.521 ± 0.13.

FIDQHRALLIARVTNVEWLLDALYGKVLTDEQYQAVRAEPTNPSKMRKLFSFTPAWNWTCKDLLLQALRESQSYLVEDLER [A8L]: the abundance fitness was -0.79 ± 0.13.

As for FIDQHRAELIARVTNVEWLLDALYGKVLTDEQYQAVRAEPTNPSKMRKLFSFTPAWNWTCKDLLLQALRESQSYLVEDLER [A8E], the abundance fitness stood at 0.2 ± 0.072.

Turning to FIDQHRAQLIARVTNVEWLLDALYGKVLTDEQYQAVRAEPTNPSKMRKLFSFTPAWNWTCKDLLLQALRESQSYLVEDLER [A8Q], the abundance fitness was -0.078 ± 0.063.

Regarding FIDQHRAVLIARVTNVEWLLDALYGKVLTDEQYQAVRAEPTNPSKMRKLFSFTPAWNWTCKDLLLQALRESQSYLVEDLER [A8V], the abundance fitness was -0.424 ± 0.11.

Consider FIDQHRANLIARVTNVEWLLDALYGKVLTDEQYQAVRAEPTNPSKMRKLFSFTPAWNWTCKDLLLQALRESQSYLVEDLER [A8N], for which the abundance fitness is -0.558 ± 0.39.

In the case of FIDQHRAYLIARVTNVEWLLDALYGKVLTDEQYQAVRAEPTNPSKMRKLFSFTPAWNWTCKDLLLQALRESQSYLVEDLER [A8Y], the abundance fitness was -0.193 ± 0.12.

As to FIDQHRAMLIARVTNVEWLLDALYGKVLTDEQYQAVRAEPTNPSKMRKLFSFTPAWNWTCKDLLLQALRESQSYLVEDLER [A8M], the abundance fitness is -0.372 ± 0.12.

Turning to FIDQHRAHLIARVTNVEWLLDALYGKVLTDEQYQAVRAEPTNPSKMRKLFSFTPAWNWTCKDLLLQALRESQSYLVEDLER [A8H], the abundance fitness was -0.375 ± 0.11.

For FIDQHRASLIARVTNVEWLLDALYGKVLTDEQYQAVRAEPTNPSKMRKLFSFTPAWNWTCKDLLLQALRESQSYLVEDLER [A8S], the abundance fitness is -0.112 ± 0.052.

As to FIDQHRATLIARVTNVEWLLDALYGKVLTDEQYQAVRAEPTNPSKMRKLFSFTPAWNWTCKDLLLQALRESQSYLVEDLER [A8T], the abundance fitness is -0.239 ± 0.069.

FIDQHRAILIARVTNVEWLLDALYGKVLTDEQYQAVRAEPTNPSKMRKLFSFTPAWNWTCKDLLLQALRESQSYLVEDLER [A8I]: the abundance fitness is -0.225 ± 0.2.

As to FIDQHRAPLIARVTNVEWLLDALYGKVLTDEQYQAVRAEPTNPSKMRKLFSFTPAWNWTCKDLLLQALRESQSYLVEDLER [A8P], the abundance fitness is -0.945 ± 0.16.

Take FIDQHRACLIARVTNVEWLLDALYGKVLTDEQYQAVRAEPTNPSKMRKLFSFTPAWNWTCKDLLLQALRESQSYLVEDLER [A8C]: the abundance fitness was -0.312 ± 0.097.

For the origin of these results see the Human Domainome abundance scans (Beltran et al. 2025).
